Experimental data published in the DeepSol protein solubility set.

Test: soluble on expression in E. coli; label from the status in PepcDB or PDB records

Row | Sequence | soluble on expression in E. coli
1 | MADANATICYLNGLSLHTINEVEKILLALPKKGDRCEVQMSKPLNRCIGRSTGDVIASRSVQIRDEPKPLSLSPQKSEQEIKKSSKSKKLSEDCCLRSIKERVEIVETRNGSDAFGAKKLQYKVLTDQVRVSPIVSCNGVTLELDVEVTIPDRDEKKKLKLEIDRTLSVLILSIRNH | not soluble
2 | EIDGTTYVDGGLFKDLPASVIREDCRYLIGVHLNPKEPSDYKKSLFGIAERCFGYIFRANSLPDRKLCDLLIESREIIKFKPFHVEPAEEIAAFGYKMAKQVLKTTSITRNP | not soluble
3 | MGTPKPRILPWLVSQLDLGQLEGVAWVNKSRTRFRIPWKHGLRQDAQQEDFGIFQAWAEATGAYVPGRDKPDLPTWKRNFRSALNRKEGLRLAEDRSKDPHDPHKIYEFVNSGVGDFSQPDTS | soluble
4 | MLPFLFFSTLFSSIFTEAQKQYWVCNSSDASISYTYCDKMQYPISINVNPCIELKGSKGLLHIFYIPRRDLKQLYFNLYITVNTMNLPKRKEVICRGSDDDYSFCRALKGETVNTTISFSFKGIKFSKGKYKCVVEAISGSPEEMLFCLEFVILHQPNSNLEHHHHHH | not soluble
5 | MGTAAERWERAQMFFDAKDYAVAARILDGLVDEVPEQTGPRLLLARSYYHSAQLGRAEAELRILVERDPVEHYARLMLGRTLQRQGRDDEADSQLRIASALAGLEHHHHHH | not soluble
6 | MTKIIKNGTIVTATDTYEAHLLIKDGKIAMIGQNLEEKGAEVIDAKGCYVFPGGIDPHTHLDMPLGGTVTKDDFESGTIAAAFGGTTTIIDFCLTNKGEPLKKAIETWHNKANGKAVIDYGFHLMISEITDDVLEELPKVLEEEGITSLKVFMAYKNVFQADDGTLYCTLLAAKELGALVMVHAENGDVIDYLTKKALADGNTDPIYHALTRPPELEGEATGRACQLTELAGSQLYVVHVTCAQAVEKIAEARNKGLDVWGETCPQYLVLDQSYLEKPNFEGAKYVWSPPLREKWHQEVLWNALKNGQLQTLGSDQCSFDFKGQKELGRGDFTKIPNGGPIIEDRVSILFSEGVKKGRITLNQFVDIVSTRIAKLFGLFPKKGTIVVGSDADLVIFDPNIERVISAETHHMAVDYNAFEGMKVTGEPVSVLCRGEFVVRDKQFVGKPGYGQYLKRAKYGT | soluble
7 | VEAHPSLTLFSQLRIEHEDMAIAEDDWAWLRHKGHLRLGAALDETSPFNVRLDDENYEGITADVATLVGQLLGMRIKVVSFDTHADAVAALAAGKIDLLGSHYSSAGDSSLVLSQPYARDRLAVFKRMGEKRNSPEDLAGLSVAVAREHVGELRQRFPRARFVVFGSHDEAVAAVAFGHTDLYLDDVLSAYHRINRSYYGYVRFERFADARLEGGYGFLLRRGDTNLLRVVNSAIGAINQDRLESIARRWVGSGSLPTGQRIALTPQESRWIARHPVVRLVINDDLAPLAFFNSDETFSGIASDLLDMISRRTGLHFQVTPRSGGFPEQIGVLARKEADLAIMSRSSKREEMLRFTRSFLSTSYVLVTRADDKGRAEIPGSLDGKRIAIPAGHVGMQQVRERYPQASMVEVGVALDAMNLVYEGRADAAVVPLVTARYYIVRLFRERLAIADLVPIGAATAHFAVRRGDAELQSILDKALLSISPDDLSDIVNRWRSPPGMSGQT | soluble
8 | GWNECNDKLRDISRSFWRGDQGYLKEFATRLMGSRDIYSAANWPYKLTVNYITYHDGFTLQDLVSYKHKHNEANGEENRDGHGDNRSENYGVEGETENIMIIATREKQKRNLIASLLFAFGIPHILTADVLSHSQDGNNNAYCQDNKTSWINWSETERKAHFKTWMAQMVANRHQYMVPFIRAFSGENRNNNRIFWRRTDGRLMEHDDWNRLSSVALHLGIGKDGQELVYLINQTNATARFKLPNERNQEWVTICDTNVRNLNPGHAEGEVLLSPTSMVILHYQPKPNSPQGEQLQS | not soluble
9 | MGSDKIHHHHHHMKIGIITICKVNNYGAELQAFATQKKLEQMGHNAEIINYLYYKDWHFKDTPLSQPFVPLDMKGKLSYWIKYRLMSWVVNKVLPIFNGNMRRRLHNYQSFIDSERFSAQYKSMDELYKTYPKYDIYMVGSDQVWNPSASSSIEPYFLTFAPKNAPKVTYASSFGVASIAPNLSKRYAKLLNNLDTIAVREQSGVELVKQLTGREAKLVVDPTLLLSKADWEPYMKPLAKISTQYILIYQLFPSQTVIDVALKIGKEKNLPVYNICKRAYGMKKIVGINNILDAGPSEFLWLIANATCMVTNSFHGTAFSVNFATPFCCVLNRKRKNNGRMISFLDKVDMSNRILYEDSIAELNVMTACSEVTNNHLRLLVNNSIDYLKSIIENKEQKC | not soluble
10 | MGSDKIHHHHHHMQTPSYFTPASFDFLTKLEHNNNREWFKANQAEYELQVRTPALHFIEAMSGSVVDLSPRLTAVAKKVGGSLMRPQRDSRFSKDKTPYKLNVGIQFRHFQAKDVHAPGLYLHLANDGCFIAAGIWHPESKALNAIRHCIDENPKGYQKAIANLTAAGFELSGDSLSRPPRGFDKSHPLIDELKRKDFIAIKDISLEQVCQLDLVDFCAQQYQYTSALMYYLCFALDLDF | not soluble
11 | MTMIMRSIIDSLEALFSSFFSSIAPNLYEVLNFHCKKHTGMNFAEATLKNPKLTYEFLVKFFDSEMAVDVLDYLLSNFLKKYSIRAYGILKSFKSGDNKKLIEVAKLYSKVMQNGGGKDRD | not soluble
12 | MAHHHHHHMFHRHSFYEKGSSAPRDGAGAGADGTQAHGGAAGGSCNNGGTSSSSTASSQQQREQDERLYGMGSATAQQRRQVRQQWEKSFFGRLHYEEGMHDRFSEALKSEDAEAFRQSIAGQSHADLFPHWPEEEEAPLSEFKRLRPSLQLHYIVNRLSSGERRIRYSVDFGGLLMMPQLNLGEMMVKEADTLLRELGWMNDEVAMRIEEVQALASKIKFDFDLD | soluble
13 | MAHHHHHHMYTWFHTSSHVFFVMEYCSNGDLFTYLNEHGPFAEKKVAEMLFEIIWAIRTCHDKRIAHLDLKPENVLVNHEEKCKLADFGLSAHIGSKHKKKGISHYRGTHDYWSPEQCARHQKKKQNFGEFDQKTDIWTLGILAFELKFGRPPFGSTNEERETVIMNRIQDYHWSQLFCEKMKQDLIDKLSPEFKDFLNLCLDKNPKKRPTAETLIQHPFIFLHNKSRPCIKSYATQPRGKQGPKLSHKGFNEQDGSFLTPIWFHNKG | not soluble
14 | DTGTISTEEFYNFDNWKGFGYELFEDWSRWVYDWLPDGWNLWKELDRNRSGQYHIYDPLALDLDGDGIETVAAKGFSGSLFDHNGNGIRTATGWVSADDGLLVRDLNGNGIIDNGAELFGDNTKLADGSFAKHGYAALAELDSNGDNIINAADAAFQSLRVWQDLNQDGISQANELRTLEELGIQSLDLAYKDVNKNLGNGNTLAQQGSYTKTDGTTAKMGDLLLAADNLHSRFTNKMLSISHVRENTISPFVLGCLNK | not soluble
15 | MGSDKIHHHHHHMELNHLVTGKIALNQYVHRLEQKDVSFYVHYWGAMTNHYNTLLHKHSFYEICYVVRGEGYYLEGDRTYPLREQTIFLSKPEHLHQIKSETGLFLFYVAFELSEDQSSAEWIKVMEEVKQSPFITMQLKDGEPPGLLWKTLMLQAAQPVNAFDKEILSHLSHALILSLIQTFLPYAQRPKQKQPIHTSSALLTEVKLHIKDNLSQPLKLTDVASHFHISGRHLSRLFAAELGVSYSEFVQNEKINKAAELLKSTNLSIKEIAEEIGFSVHYFTRVFSAKIGSSPGLFRSLYKDSKMTAFQINKPFQKIEQAKPHE | not soluble
16 | MLKFRASFLSLALMLAVPFAPQAVAKTAATTAASQPEIASGSAMIVDLNTNKVIYSNHPDLVRPIASITKLMTAMVVLDARLPLDEILKVDISQTPEMKGVYSRVRLNSEISRKNMLLLALMSSENRAAASLAHYYPGGYNAFIKAMNAKAKALGMTHTRFVEPTGLSIHNVSTARDLTKLLIATKQYPLIGQLSTTREDMATFSHPAYTLPFRNTNHLVYRDNWNIQLTKTGFTNAAGHCLVMRTVINNKPVALVVMDAFGKYTHFADASRLRTWIETGKVMPVPAAALSYKKQKAAQMAAASASAGAQTAQND | not soluble
17 | MNIFAILNHMGVFFKEEPVRQLHAALEKAGYEVVYPVDDKDLIKMIEMNPRICGVLFDWDKYSLELCERISQINEKLPVHAFANEQSTLDISLTDLRLNVSFFEYALGMADDI | not soluble
18 | MARSQLSAAGEQHVIQLNQQGGKNLFCFPPISGFGIYFKDLALQLNHKAAVYGFHFIEEDSRIEQYVSRITEIQPEGPYVLLGYSAGGNLAFEVVQAMEQKGLEVSDFIIVDAYKKDQSITADTENDDSAAYLPEAVRETVMQKKRCYQEYWAQLINEGRIKSNIHFIEAGIQTETSGAMVLQKWQDAAEEGYAEYTGYGAHKDMLEGEFAEKNANIILNILDKINSDQKVLPNKHGSHHHHHH | soluble
19 | MGDNWRYEVKYDGFRTILFWTKETIRLESRNERLLTDQFPEIHDFCQRISNKVEAWLPITIDGELVHLVSPYRAHFAPIQTRSFMRKHETIAASSIKTPATLLAFDILELKGKTLVDLPYDERKKQLKALLKAIDVPLEHHHHHH | not soluble
20 | MGSDKIHHHHHHMFQRAFLLYNGKAGNGKTDKYLKDVVPRALQSIGELTIIPSKEKGDIESICREREVDLIIVMGGDGTVHECINGLAVSPSPPPLVVLPTGTCNDFARSLRIPLSFVEAGNLLESGTWKRVPLIQANHRCYTNFLGMGIITTASEGTNPELKETFGRFSYFLSALQSLREPSPFSYTITSTKGSMSGQAILLLVMHGQFLGTLPVQLDENAIEQPFVTIYIVKEGGLPFIKDLVKGLVSPAMVNESDHIDRMTCDQCQIETEPVLSIDMDGEIYMKTPVNITTVGKVITVRVPDVNVTSDADHTIGGAQDTP | not soluble
21 | MINSSEGKSDNKIIEKATQILSKYPLCDSCLGRCFARLGYGLENKERGRAIKISLMLILDEKIKNHEIGDLSSIKRIMENLGPIAEKWYKLYFSSEFHSHPCYLCQNKIEDIKEDFSDKAFKLLSGLGVKSYVLGVELDEETKKKESKIIEEFTLMYYESIKHEIKREVGKTLSKRGYPPNMDNPEVEIVYRLSDLQVFIISKNIRTFYVYNRLNRNLPISSWFSKQGNEGLNTLLQRKIVFAFSEPTTVRILADYPIVIENEGRDKIDVGGYYIFKVMTVGKKELQAISAAKPTMRKYRVTVYSTSSLSDAIRVYGNIYDLYIDAKSFSELNEKLSKLKSQYEIIVLSVDLIDVKGRIKDIIENYLKSFLEHHHHHH | not soluble
22 | GVDWQDANSLQYVVQSAETLVPDVKPVAQAESVNRVNTGGEGLGGELRDQEYAIILETLVECNGRRKEMAEKLGISPRTLRYKLAKMRDAGIDIPS | not soluble
23 | MSLITCKFKNLGNLHAGGCGYIPLSSTREERVKNGSRVVSTALLSSYHKGIAFVIFPSHHHTPTRPPSPKPSGSGGYLLNLRRRDPPQAFLSGCPPLPPRGSVLLGCTPPRTQFFVFHVVSYPLVLQKLLQTRDQKSIGSNSSCDTSEMSDCWQVTLSI | not soluble
24 | SVPIVSAWEKGMEAARALMDKYHVDNDLKANFKLLPDQVEALAAVCKTWLNEEHRGLQLTFTSNKTFVTMMGRFLQAYLQSFAEVTYKHHEPTGCALWLHRCAEIEGELKCLHGSIMINKEHVIEMDVTSENGQRALKEQSSKAKIVKNRWGRNVVQISNTDARCCVHDAACPANQFSGKSCGMFFSEGAKAQVAFKQIKAFMQALYPNAQTGHGHLLMPLRCECNSKPGHAPFLGRQLPKLTPFALSNAEDLDADLISDKSVLASVHHPALIVFQCCNPVYRNSRAQGGGPNCDFKISAPDLLNALVMVRSLWSENFTELPRMVVPEFKWSTKHQYRNVSLPVAHSDARQNPFDF | soluble
25 | MHIKIDDLTGRQVVSLVNEHLHSMTLMSPPESIHALGLEKLRGPEITFWSAWEGDELAGCGALKELDTRHGEIKSMRTSASHLRKGVAKQVLQHIIEEAEKRGYERLSLETGSMASFEPARKLYESFGFQYCEPFADYGEDPNSVFMTKKLLEHHHHHH | soluble
